The text below walks through data of patent EP1272205B1 (The Johns Hopkins University, dated 2013).

The target in assay [1] is SAF-2 on cells (human eosinophils, basophils, cord blood-derived mast cells; HEK293 cells transfected with full length SAF-2) (human) (UniProt Q9NYZ4). The assay is described as follows: indirect immunofluorescence flow cytometry on human basophils. (Flow cytometry measures light scatter and fluorescence of single cells or particles in a stream.)
Assay [2] deals with T1, SAF-2 polypeptide (extracellular domain of sialoadhesin factor-2, released from SAF-2/Fc with Factor Xa) (human, UniProt Q9NYZ4 17-363).
T1 construct: extracellular domain; The BIAcore paragraph says only 'SAF-2 (diluted in HBS buffer)'; also called Siglec-8
The assay is described as follows: BIAcore SPR; mAb captured on rabbit anti-mouse IgG Fc surface, SAF-2 injected. (In general: In SPR one partner is held on a chip, and binding of the other changes the refractive index at the surface.)

The target of assay [3] is T1, SAF-2 polypeptide (extracellular domain …). The assay is described as follows: BIAcore SPR; mAb captured on rabbit anti-mouse IgG Fc surface, SAF-2 injected; calculated from rates.

T1 sequence (Q9NYZ4 17-363): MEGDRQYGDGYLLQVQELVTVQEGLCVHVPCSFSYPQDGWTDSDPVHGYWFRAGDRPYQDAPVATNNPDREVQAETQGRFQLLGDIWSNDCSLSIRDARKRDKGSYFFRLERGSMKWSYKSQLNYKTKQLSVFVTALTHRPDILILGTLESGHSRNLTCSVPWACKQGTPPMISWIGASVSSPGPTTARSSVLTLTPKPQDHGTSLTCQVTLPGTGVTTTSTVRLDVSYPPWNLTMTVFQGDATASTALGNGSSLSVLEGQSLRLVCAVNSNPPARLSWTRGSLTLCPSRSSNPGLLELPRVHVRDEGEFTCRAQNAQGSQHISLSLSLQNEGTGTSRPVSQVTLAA
Chain of SAF-2 on cells (human eosinophils, basophils, cord blood-derived mast cells; HEK293 cells transfected with full length SAF-2) (human) (Q9NYZ4 17-499): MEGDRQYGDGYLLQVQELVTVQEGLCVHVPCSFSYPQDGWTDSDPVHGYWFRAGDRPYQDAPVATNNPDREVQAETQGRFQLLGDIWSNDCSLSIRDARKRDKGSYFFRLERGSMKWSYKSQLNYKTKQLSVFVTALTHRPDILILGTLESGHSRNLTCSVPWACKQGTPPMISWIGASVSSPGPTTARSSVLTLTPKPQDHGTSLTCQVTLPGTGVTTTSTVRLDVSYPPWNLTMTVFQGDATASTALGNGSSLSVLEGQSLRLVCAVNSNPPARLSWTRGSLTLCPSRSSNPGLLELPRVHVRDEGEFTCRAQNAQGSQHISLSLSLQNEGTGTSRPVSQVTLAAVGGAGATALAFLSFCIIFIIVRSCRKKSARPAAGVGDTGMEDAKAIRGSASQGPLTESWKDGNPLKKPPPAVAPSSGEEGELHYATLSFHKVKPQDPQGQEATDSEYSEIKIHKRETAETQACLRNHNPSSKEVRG

B1: monoclonal antibody 2C4 (antibody, V domains shown)
VH: QVQLKESGPGLVAPSQSLSITCTVSGFSLIYGAHWVRQPPGKGLEWLGVIWAGGSTNYNSALMSRLSISKDNSKSQVFLKINSLQTDDTALYYCARDGSSPYYYSMEYWGQGTSVTVSS
VL: EIILTQSPAIMSASPGEKVSITCSATSSVSYMHWFQQKPGTSPKLWIYSTSNLASGVPVRFSGSGSGTSYSLTISRMEAEDAATYYCQQRSSYPFTFGSGTKLEIKR
notes: also called mAb 2C4
In assay [1], B1 displayed a percent positive (percent positive) of 21.1. In addition, in assay [2], the koff – broadly, the first-order rate constant of dissociation – is 4.3e-05 s⁻¹ and the kon (in general, the rate constant with which the complex forms) turned out to be 220000 M⁻¹ s⁻¹. The dissociation constant (Kd) (as a rule, the free concentration of one partner at which half of the binding sites on the other are occupied at equilibrium, for simple one-to-one binding) in assay [3] is 200 pM.
